From article PMC9408853

What was measured:
[1] = biological target: human C-C chemokine receptor type 7 (human) (UniProt P32248)
[2] = biological target: human C-C chemokine receptor type 7 (human) (UniProt P32248); remark: listed apart in the source
CCR7-LgBiT (human) = CCR7-LgBiT (human) (UniProt P32248)

Substance	cellular electrical impedance of HEK293 cells stably expressing CCR7, AUC[0–120], pEC50 [1]	G protein activation, Gαi-1 (nanoBRET, Gαi1-91-NLuc with Gγ2-LSS-mKATE2) in HEK293 cells stably expressing CCR7, pEC50 [2]	G protein activation, Gαi-2 (nanoBRET, Gαi2-91-NLuc with Gγ2-LSS-mKATE2) in HEK293 cells stably expressing CCR7, pEC50 [2]	G protein activation, Gαi-3 (nanoBRET, Gαi3-91-NLuc with Gγ2-LSS-mKATE2) in HEK293 cells stably expressing CCR7, pEC50 [2]	inhibition of forskolin-induced cAMP production (GloSensor) in HEK293 cells stably expressing CCR7, pEC50 [2]	ligand-induced CCR7 internalisation (flow cytometry of surface CCR7, 30 min at 37 °C) in HEK293 cells stably expressing CCR7, pEC50 [2]	ligand-induced β-arrestin2 recruitment to CCR7 (NanoBiT, CCR7-LgBiT with SmBiT-β-arrestin2 in HEK293 cells), pEC50 (CCR7-LgBiT (human))
C-C chemokine ligand 21 (from UniProt O00585 24-134)	6.93 pEC50 (M)	8.44 pEC50 (M)	8.72 pEC50 (M)	9.34 pEC50 (M)	7.67 pEC50 (M)	6.73 pEC50 (M)	6.48 pEC50 (M)
C-C chemokine ligand 19 (from UniProt Q99731 22-98)	8.2 pEC50 (M)	8.64 pEC50 (M)	9.02 pEC50 (M)	9.61 pEC50 (M)	7.83 pEC50 (M)	7.7 pEC50 (M)	7.61 pEC50 (M)
